For this test, the target named is Escherichia coli DNA gyrase B subunit (GyrB) (Escherichia coli, UniProt P0AES6 1-804). Put plainly: SAXS.

B1: GyrA-ΔCTD (mutant GyrA subunit lacking the CTDs, residues 1–523) (domain or fragment)
chain: MSDLAREITPVNIEEELKSSYLDYAMSVIVGRALPDVRDGLKPVHRRVLYAMNVLGNDWNKAYKKSARVVGDVIGKYHPHGDSAVYDTIVRMAQPFSLRYMLVDGQGNFGSIDGDSAAAMRYTEIRLAKIAHELMADLEKETVDFVDNYDGTEKIPDVMPTKIPNLLVNGSSGIAVGMATNIPPHNLTEVINGCLAYIDDEDISIEGLMEHIPGPDFPTAAIINGRRGIEEAYRTGRGKVYIRARAEVEVDAKTGRETIIVHEIPYQVNKARLIEKIAELVKEKRVEGISALRDESDKDGMRIVIEVKRDAVGEVVLNNLYSQTQLQVSFGINMVALHHGQPKIMNLKDIIAAFVRHRREVVTRRTIFELRKARDRAHILEALAVALANIDPIIELIRHAPTPAEAKTALVANPWQLGNVAAMLERAGDDAARPEWLEPEFGVRDGLYYLTEQQAQAILDLRLQKLTGLEHEKLLDEYKELLDQIAELLRILGSADRLMEVIREELELVREQFGDKRRTEITA
For the molecule B1, the binding result is given as “binds”.

Source of the values: PMC3025574 (Nucleic Acids Research, 2010).
